Key:
SEC-MALS = target: the molecule itself; assay: SEC-MALS
[1] = target: T1, Myo4p-C (C-terminal cargo-binding region of Myo4p, amino acids 923-1471, His6 fusion) (S. cerevisiae, UniProt P32492 923-1471); assay: SEC-MALS
T1 sequence (looked up): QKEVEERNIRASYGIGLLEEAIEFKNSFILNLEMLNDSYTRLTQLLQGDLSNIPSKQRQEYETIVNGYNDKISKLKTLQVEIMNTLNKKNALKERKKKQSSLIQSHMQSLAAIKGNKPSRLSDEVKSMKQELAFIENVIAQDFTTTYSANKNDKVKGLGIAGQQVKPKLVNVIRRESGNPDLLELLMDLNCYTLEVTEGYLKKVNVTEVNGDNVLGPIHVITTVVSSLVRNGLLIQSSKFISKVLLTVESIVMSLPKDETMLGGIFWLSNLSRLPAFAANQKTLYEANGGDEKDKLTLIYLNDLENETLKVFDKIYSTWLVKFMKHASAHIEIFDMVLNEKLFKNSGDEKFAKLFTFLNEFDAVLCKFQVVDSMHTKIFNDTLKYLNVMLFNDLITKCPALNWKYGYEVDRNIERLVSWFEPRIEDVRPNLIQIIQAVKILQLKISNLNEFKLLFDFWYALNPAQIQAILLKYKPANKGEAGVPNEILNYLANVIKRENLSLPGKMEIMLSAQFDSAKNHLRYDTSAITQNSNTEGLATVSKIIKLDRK

stoichiometry N [1]: 2 She3p per Myo4p
B1: She3p-His6 (full-length She3p) (natural protein, S. cerevisiae, UniProt P38272 1-425, looked up)
chain: MSDQDNTQTSSSKLAPHHNIFMANLESSPTKDRNTSSQNASSSRVIESLHDQIDMLTKTNLQLTTQSQNLLSKLELAQSKESKLLENLNLLKNENENLNSIFERKNKKLKELEKDYSELSNRYNEQKEKMDQLSKLAKNSSAIEQSCSEKLQNMEVNYNSLLESQNLYRDHYSDEISKLNEKIGLLELELSNQNLNYGSDTSSNSDIELNLNKFNDSVKDLKSLETEKDSKLSKIITHSLDELNLQSWLNLYQTNENLISTFAEKMDLKDVLKRNDEKISNKGAVVQTLKKNVQTQVESNNADALSSNNAQDMLPIKMVKLRKTPNTNDSSSNGNSSNNKRRSFYTASPLLSSGSIPKSASPVLPGVKRTASVRKPSSSSSKTNVTHNNDPSTSPTISVPPGVTRTVSSTHKKKGNSMVVHGAQS
stoichiometry N (SEC-MALS): 2

From PMC4615642 (RNA Biology, 2015)
